# Test results from patent publication US20230220048A1.
# Target: recombinant human FcRn (human) (UniProt P55899)
# Experiment: SPR, pH 5.8 (comparison value, data not shown)
# Sequence of recombinant human FcRn (human) (P55899 24-297): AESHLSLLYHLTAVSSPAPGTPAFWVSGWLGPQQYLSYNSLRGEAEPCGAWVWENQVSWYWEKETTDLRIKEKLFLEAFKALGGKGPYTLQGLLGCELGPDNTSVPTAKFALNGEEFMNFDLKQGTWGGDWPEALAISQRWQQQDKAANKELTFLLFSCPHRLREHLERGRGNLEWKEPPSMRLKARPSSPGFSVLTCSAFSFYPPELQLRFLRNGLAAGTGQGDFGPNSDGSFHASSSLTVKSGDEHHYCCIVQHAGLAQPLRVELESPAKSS
substance,measurement,value
wild type HSA (from UniProt P02768 25-607),Kd,1 to 2 µM
